This note sets out measurements from US20230272055A1 (Incyte, published 2023).

The target in the assay is MBP protein (UniProt P0AEX9 27-392 = MBP). Briefly: SPR (Biacore 8K), antibody captured on anti-human IgG (Fc), MBP injected. As to the method:
Experiment 1: Recombinant MBP-mutCALR Type 1 fusion protein was custom made at Cepter (cepterbiopartners.com). Data for the interaction of antibodies with recombinant MBP-mutCALR Type 1 fusion protein were collected at 25° C. on a Biacore 8K instrument (Cytiva, Marlborough, Mass.), and all reagents were obtained from Cytiva unless otherwise specified. The experiments were conducted using Tris-buffered saline (pH 7.2), 0.005% Surfactant P20, 1 mM CaCl₂) as running buffer. To prepare the capture surfaces, anti-human IgG (Fc) antibodies (Product #29234600) was amine-coupled onto a CM4 chip (Product #BR100534) under standard conditions using an Amine Coupling Kit (Product #BR100050). […] The kinetics parameters were obtained by applying 1:1 binding model to fit the data from multiple-cycle injection experiments using Biacore Insight Evaluation software.

B1: anti-mutCALR antibody clone 8 (antibody, human IgG1, lambda, V domains shown)
VH: QVQLVQSGAEVKKPGSSVKVSCKVSGYTLTELSMQWVRQAPGKGLEWMGGFDPDDGETMYAEKFQGRLTVTEDTSTDTVYMELRSLTSEDTALYFCATSPGYDFFDYWGQGTLVTVSS
VL: SYELTQPPSVSVAPGQTARITCGGNNIGSKSVHWYQQKPGQAPVLVVYDDSDRPSGIPERFSGSNSGRTATLTISRVEAGDEADYHCQVWDSSSDHLVFGGGTKLTVLG
notes: human IgG1; group 1
For the molecule B1, the binding result was “no binding (tested: 250 nM)”.

B2: anti-mutCALR antibody clone 22 (antibody, human IgG1, lambda, V domains shown)
VH: EVQLVQSGAEVKKPGASVKVSCKVSGYTLTELSMQWVRQAPGKGLEWMGGFDPDDGETMYAEKFQGRLTVTEDTSTDTVYMELRSLTSEDTALYFCATSPGYDFFDYWGQGTLVTVSS
VL: SYVLTQPPSVSVAPGKTARITCGGNNIGSKNVHWYQQKPGQAPVLVVYDDSDRPSGIPERFSGSNSGNTATLTINRVEAGDEADYYCQVWDSSNDLLIFGGGTKLTVLG
notes: human IgG1; group 1
For B2, the binding result is “no binding (tested: 250 nM)”.

B3: anti-mutCALR antibody clone 17 (antibody, human IgG1, lambda)
heavy: not shown
light: SYVLTQPPSVSVAPGQTARITCGGSDIGDEIVHWYQQKPGQAPVLVVYDDSDRPSGIPERFSGSNSGNTATLTISRAQAGDEADYYCQVWDSSSDHLIFGGGTKLTVLGQPKAAPSVTLFPPSSEELQANKATLVCLISDFYPGAVTVAWKADSSPVKAGVETTTPSKQSNNKYAASSYLSLTPEQWKSHRSYSCQVTHEGSTVEKTVAPTECS
notes: human IgG1; group 1
Regarding B3, the binding result is on record as “no binding (tested: 250 nM)”.

B4: anti-mutCALR antibody clone 10 (antibody, human IgG1, lambda, V domains shown)
VH: EVQLVQSGAEVKKPGASVKVSCKVSGYTLTELSMQWVRQAPGKGLEWMGGFDPDDGETMYAEKFQGRLTVTEDTSTDTVYMELRSLTSEDTALYFCATSPGYDFFDYWGQGTLVTVSS
VL: SYELTQPPSVSVAPGQTARIPCGGNNIGSEGVHWYQQKPGQAPVLVVYDDSDRPSGIPERFSGSNSGNTATLTISRVEAGDEADYYCQVWDSSNDLLIFGGGTKLTVLG
notes: human IgG1; group 1
Turning to B4, the binding result was “no binding (tested: 250 nM)”.

B5: anti-mutCALR antibody clone 25 (antibody, human IgG1, lambda, V domains shown)
VH: EVQLVQSGAEVKKPGASVKVSCKVSGYTLTELSMQWVRQAPGKGLEWMGGFDPDDGETMYAEKFQGRLTVTEDTSTDTVYMELRSLTSEDTALYFCATSPGYDFFDYWGQGTLVTVSS
VL: SYELTQPPSVAVAPGQTARITCGGNNIGRKAVHWYQQKPGQAPVLVVYDDSDRPSGIPERFSGSNSGNTATLTINRVEAGDEADYYCQVWDSSNDLLIFGGGTKLTVLG
notes: human IgG1; group 1
For the molecule B5, the binding result is on record as “no binding (tested: 250 nM)”.

B6: anti-mutCALR antibody clone 29 (antibody, human IgG1, lambda, V domains shown)
VH: EVQLVQSGAEVKKPGASVKVSCKVSGYTLTELSMQWVRQAPGKGLEWMGGFDPDDGETMYAEKFQGRLTVTEDTSTDTVYMELRSLTSEDTALYFCATSPGYDFFDYWGQGTLVTVSS
VL: SYVLTQPPSVSVAPGKTARITCGGNNIGSKSVHWYQQKPGQAPVLVVYDDSDRPSGIPERFSGSNSGNTATLTISRVEAGDEADYYCQVWDSSSDLLIFGGGAKLTVLG
notes: human IgG1; group 1
On to B6, for which the binding result is on record as “no binding (tested: 250 nM)”.

B7: anti-mutCALR antibody clone 27 (antibody, human IgG1, lambda, V domains shown)
VH: EVQLVQSGAEVKKPGASVKVSCKVSGYTLTELSMQWVRQAPGKGLEWMGGFDPDDGETMYAEKFQGRLTVTEDTSTDTVYMELRSLTSEDTALYFCATSPGYDFFDYWGQGTLVTVSS
VL: SYVLTQPPSVSVAPGQTARITCGGNNIGIKSVHWYQQKPGQAPVLVVYDDRDRPSGIPERFSGSNSGNTATLTINRVEAGDEADYYCQVWDSSNDLLIFGGGTKLTVLG
notes: human IgG1; group 1
On to B7, for which the binding result is recorded as “no binding (tested: 250 nM)”.

B8: anti-mutCALR antibody clone 9 (antibody, human IgG1, lambda, V domains shown)
VH: EVQLVQSGAEVKKPGASVKVSCKVSGYTLTELSMQWVRQAPGKGLEWMGGFDPDDGETMYAEKFQGRLTVTEDTSTDTVYMELRSLTSEDTALYFCATSPGYDFFDYWGQGTLVTVSS
VL: SYVLTQPPSVSVAPGQTARIPCGGNNIGSKSVHWYQQKPGQAPVLVVYDDRDRPSGIPERFSGSNSGNTATLTINRVEAGDEADYYCQVWDSSNDLLIFGGGTKLTVLG
notes: human IgG1; group 1
B8: the binding result is “no binding (tested: 250 nM)”.

B9: anti-mutCALR antibody clone 18 (antibody, human IgG1, lambda, V domains shown)
VH: EVQLVQSGAEVKKPGASVKVSCKVSGYTLTELSMQWVRQAPGKGLEWMGGFDPDDGETMYAEKFQGRLTVTEDTSTDTVYMELRSLTSEDTALYFCATSPGYDFFDYWGQGTLVTVSS
VL: SYVLTQPPSVSVAPGKTARITCGGNNIGSKSVHWYQQKPGQAPVLVVYDDSDRPLGIPERFSGSNSGNTATLTINRVEAGDEADYYCQVWDSSNDLLIFGGGTKLTVLG
notes: human IgG1; group 1
Turning to B9, the binding result was “no binding (tested: 250 nM)”.

B10: anti-mutCALR antibody clone 20 (antibody, human IgG1, lambda, V domains shown)
VH: EVQLVQSGAEVKKPGASVKVSCKVSGYTLTELSMQWVRQAPGKGLEWMGGFDPDDGETMYAEKFQGRLTVTEDTSTDTVYMELRSLTSEDTALYFCATSPGYDFFDYWGQGTLVTVSS
VL: SYVLTQPPSVSVAPGKTARITCGGNNIGSKGVHWYQQKPGQAPVLVVYDDSDRPSGIPERFSGSNSGNTATLTINRVEAGDEADYYCQVWDSSNDLLIFGGGTKLTVLG
notes: human IgG1; group 1
For B10, the binding result is listed as “no binding (tested: 250 nM)”.

B11: anti-mutCALR antibody clone 15 (antibody, human IgG1, lambda)
heavy: not shown
light: SYELTQPPSVSVAPGKTARITCGGDNIGSKSVHWYQQKPGQAPVLVVYDDSDRPSGIPERFSGSNSGNTATLTINRVEAGDEADYYCQVWDSSNDLLIFGGGTKLTVLGQPKAAPSVTLFPPSSEELQANKATLVCLISDFYPGAVTVAWKADSSPVKAGVETTTPSKQSNNKYAASSYLSLTPEQWKSHRSYSCQVTHEGSTVEKTVAPTECS
notes: human IgG1; group 1
Regarding B11, the binding result was “no binding (tested: 250 nM)”.

B12: anti-mutCALR antibody clone 24 (antibody, human IgG1, lambda, V domains shown)
VH: EVQLVQSGAEVKKPGASVKVSCKVSGYTLTELSMQWVRQAPGKGLEWMGGFDPDDGETMYAEKLQGRLTVTEDTSTDTVYMELRSLTSEDTALYFCATSPGYDFFDYWGQGTLVTVSS
VL: SYVLTQPPSVSVAPGKTARITCGGNNIGSKSVHWYQQKPGQAPVLVVYDDSDRPSGIPERFSGSNSGNTATLTINRVEAGDEADYYCQVWDSSNDLLIFGGGTKLTVLG
notes: human IgG1; group 1
Turning to B12, the binding result is “no binding (tested: 250 nM)”.

B13: anti-mutCALR antibody clone 13 (antibody, human IgG1, lambda, V domains shown)
VH: QVQLVQSGAEVKKPGASVKVSCKVSGYTLTELSMQWVRQAPGKGLEWMGGFDPDDGETMYAEKFQGRLTVTEDTSTDTVYMELRSLTSEDTALYFCATSPGYDFFDYWGQGTLVTVSS
VL: not shown
notes: human IgG1; group 1
For B13, the binding result is “no binding (tested: 250 nM)”.

B14: anti-mutCALR antibody clone 28 (antibody, human IgG1, lambda, V domains shown)
VH: EVQLVQSGAEVKKPGASVKVSCKVSGYTLTELSMQWVRQAPGKGLEWMGGFDPDDGETMYAEKFQGRLTVTEDTSTDTVYMELRSLTSEDTALYFCATSPGYDFFDYWGQGTLVTVSS
VL: SYELTQPPSVSVAPGQTARITCGGNNIGSKSVHWYQQKPGQAPVLVVYDDSDRPSGIPERFSGSNSGNTATLTISRVEAGDEADYYCQVWDADSDQLIFGGGTKLTVLG
notes: human IgG1; group 1
In the case of B14, the binding result is “no binding (tested: 250 nM)”.

B15: anti-mutCALR antibody clone 16 (antibody, human IgG1, lambda, V domains shown)
VH: EVQLVQSGAEVKKPGASVKVSCKVSGYTLTELSMQWVRQAPGKGLEWMGGFDPDDGETMYAEKFQGRLTVTEDTSTDTVYMELRSLTSEDTALYFCATSPGYDFFDYWGQGTLVTVSS
VL: SYVLTQPPSVSVAPGKTARITCGGNNTGSKSVHWYQQKPGQAPVLVVYDDSDRPSGIPERFSGSNSGNTATLTINRVEAGDEADYYCQVWDSSNDLLIFGGGTKLTVLG
notes: human IgG1; group 1
Turning to B15, the binding result was “no binding (tested: 250 nM)”.

B16: anti-mutCALR antibody clone 19 (antibody, human IgG1, lambda, V domains shown)
VH: EVQLVQSGAEVKKPGASVKVSCKVSGYTLTELSMQWVRQAPGKGLEWMGGFDPDDGETMYAEKFQGRLTVTEDTPTDTVYMELRSLTSEDTALYFCATSPGYDFFDYWGQGTLVTVSS
VL: SYVLTQPLSVSVALGQTARITCGGSNIGDIRVHWYQQKPGQAPVLVVYDDSDRPSGIPERFSGSNSGNTATLTINRVEAGDEADYYCQVWDSSNDLLIFGGGTKLTVLG
notes: human IgG1; group 1
Turning to B16, the binding result is on record as “no binding (tested: 250 nM)”.

B17: anti-mutCALR antibody clone 12 (antibody, human IgG1, lambda, V domains shown)
VH: EVQLVQSGAEVKKPGASVKVSCKVSGYTLTELSMQWVRQAPGKGLEWMGGFDPDGGETMYAEKFQGRLTVTEDTSTDTVYMELRSLTSEDTALYFCATSPGYDFFDYWGQGTLVTVSS
VL: SYVLTQPPSVSVAPGQTARVSCGGNNIGSKSVNWYRQKPGQAPVLVIYDDSDRPSGIPERFSGSNSGNTATLTINRVEAGDEADYYCQVWDSSNDLLIFGGGTKLTVLG
notes: human IgG1; group 1
B17: the binding result is reported as “no binding (tested: 250 nM)”.

B18: anti-mutCALR antibody clone 26 (antibody, human IgG1, lambda, V domains shown)
VH: EVQLVQSGAEVKKPGASVKVSCKVSGYTLTELSMQWVRQAPGKGLEWMGGFDPDDGETMYAEKFQGRLTVTEDTSTDTVYMELRSLTSEDTALYFCATSPGYDFFDYWGQGTLVTVSS
VL: SYVLTQPPSVSVAPGQTARITCGGNNIGSKSVHWYQQKPGQAPVLVVYDDSDRPSGIPERFSGSNSGNTATLTISRVEAGDEADYYCQVWDSSIDHLIFGGGTKVTVLG
notes: human IgG1; group 1
For B18, the binding result was “no binding (tested: 250 nM)”.

B19: anti-mutCALR antibody clone 23 (antibody, human IgG1, lambda, V domains shown)
VH: EVQLVQSGAEVKKPGASVKVSCKVSGYTLTELSMQWVRQAPGKGLEWMGGFDPDDGETMYAEKFQGRLTVTEDTSTDTVYMELRSLTSEDTALYFCATSPGYDFFDYWGQGTLVTVSS
VL: SYVLTQPPSVSVAPGQTARITCGGNNIGIKSVHWYQQKPGQAPVLVVYDDSDRPSGIPERFSGSNSGNTATLTINRVEAGDEADYYCQVWDSSNDLLIFGGGTKLTVLG
notes: human IgG1; group 1
Consider B19, for which the binding result is “no binding (tested: 250 nM)”.

B20: anti-mutCALR antibody clone 21 (antibody, human IgG1, lambda, V domains shown)
VH: EVQLVQSGAEVKKPGASVKVSCEVSGYTLTELSMQWVRQAPGKGLEWMGGFDPDDGETMYAEKFQGRLTVTEDTSTDTVYMELRSLTSEDTALYFCATSPGYDFFDYWGQGTLVTVSS
VL: SYVLTQPPSVSVAPGQTARVSCGGNNIGSKSVNWYRQKPGQAPVLVIYDDSDRPSGIPERFSGSNSGNTATLTISRVEAGDEADYYCQVWDSSNDLLIFGGGTKLTVLG
notes: human IgG1; group 1
Consider B20, for which the binding result is recorded as “no binding (tested: 250 nM)”.
